IntAct's records for PubMed 24480479

B1: Focal adhesion kinase 1 (Rattus norvegicus (Rat)), O35346 (parent)
chain: MAAAYLDPNLNHTPSSSTKTHLGTGTERSPGAMERVLKVFHYFESSNEPTTWASIIRHGDATDVRGIIQKIVDSHKVKHVACYGFRLSHLRSEEVHWLHVDMGVSSVREKYELAHPPEEWKYELRIRYLPKGFLNQFTEDKPTLNFFYQQVKSDYMLEIADQVDQDIALKLGCLEIRRSYWEMRGNALEKKSNYEVLEKDVGLKRFFPKSLLDSVKAKTLRKLIQQTFRQFANLNREESILKFFEILSPVYRFDKECFKCALGSSWIISVELAIGPEEGISYLTDKGCNPTHLADFNQVQTIQYSNSEDKDRKGMLQLKIAGAPEPLTVTAPSLTIAENMADLIDGYCRLVNGATQSFIIRPQKEGERALPSIPKLANNEKQGMRTHAVSVSETDDYAEIIDEEDTYTMPSTRDYEIQRERIELGRCIGEGQFGDVHQGVYLSPENPALAVAIKTCKNCTSDSVREKFLQEALTMRQFDHPHIVKLIGVITENPVWIIMELCTLGELRSFLQVRKYSLDLASLILYAYQLSTALAYLESKRFVHRDIAARNVLVSSNDCVKLGDFGLSRYMEDSTYYKASKGKLPIKWMAPESINFRRFTSASDVWMFGVCMWEILMHGVKPFQGVKNNDVIGRIENGERLPMPPNCPPTLYSLMTKCWAYDPSRRPRFTELKAQLSTILEEEKVQQEERMRMESRRQATVSWDSGGSDEAPPKPSRPGYPSPRSSEGFYPSPQHMVQTNHYQISGYPGSHGIPAMAGSIYPGQASLLDQTELWNHRPQEMSMWQPSVEDSAALDLRGMGQVLPPHLMEERLIRQQQEMEEDQRWLEKEERFLKPDVRLSRGSIDREDGSFQGPTGNQHIYQPVGKPDPAAPPKKPPRPGAPGHLSNLSSISSPAESYNEGVKPWRLQPQEISPPPTANLDRSNDKVYENVTGLVKAVIEMSSKIQPAPPEEYVPMVKEVGLALRTLLATVDETIPILPASTHREIEMAQKLLNSDLGELISKMKLAQQYVMTSLQQEYKKQMLTAAHALAVDAKNLLDVIDQARLKMLGQTRPH

Variants of: B1
Settings: with paxi_mouse Pxn

| effect of a mutation on the interaction | Variant |
| --- | --- |
| disrupting interaction | W266A |
